Source: article PMC10999833 (Molecular Biology and Evolution, 2024)
Where “and” joins values, the source holds several entries; their conditions need not be identical. Equal values may be shown once.

Target: the molecule itself
Assay: SEC-MALS

B1: ancestor MBP-His6-J^981–1132 (wild-type bacteriophage λ J, C-terminal 152 amino acids, MBP-tagged) (domain or fragment, UniProt P03749 981-1132, looked up)
chain: NCTINGTLRAEKIVGDIVKAASAAFPRQRESSVDWPSGTRTVTVTDDHPFDRQIVVLPLTFRGSKRTVSGRTTYSMCYLKVLMNGAVIYDGAANEAVQVFSRIVDMPAGRGNVILTFTLTSTRHSADIPPYTFASDVQVMVIKKQALGISVV
stoichiometry N: 3 and 2
